Laboratory results from article PMC6444013, “Development of a fluorescence-based method for the rapid determination of Zika virus polymerase activity and the screening of antiviral drugs” (Scientific Reports, 2019).

Tested on: T1, Nc1ncnc2c1ncn2[C@@H]1O[C@H](COP(=O)(O)OP(=O)(O)OP(=O)(O)O)[C@@H](O)[C@H]1O
T1 construct: RdRp domain residues 275-903 of NS5, cut from the genome polyprotein; E. coli BL21(DE3)-pRIL; 75 kDa
Experiment: purified protein
Type: biochemical, Zika virus
Settings: poly-U 3 μg/mL, ATP 200–2250 μM, 2.5 mM MnCl2, pH 7.5, 30 °C

Work on “ZIKV RdRp (ZIKV NS5 RdRp domain) (Zika virus)” yielded a Km of 561 ± 38 µM.
